In publication PMC6161111, “Design, Synthesis, In Vitro, and Initial In Vivo Evaluation of Heterobivalent Peptidic Ligands Targeting Both NPY(Y1)- and GRP-Receptors—An Improvement for Breast Cancer Imaging?” (Pharmaceuticals, 2018):
Where a SMILES comes first, the peptide text is derived from it. [ ]: non-standard residue; d: D form. The star is where a group is joined. DOTA = O=C(O)CN1CCN(CC(=O)O)CCN(CC(=O)*)CCN(CC(=O)O)CC1; Nle = CCCC[C@H](N)C(=O)O

How the values were obtained:
T-47D tumor-bearing mice = experiment: Ex vivo biodistribution in T-47D tumor-bearing mice; details: mouse, in vivo
Experimental: (§1) In vivo experiments. All animal experiments were performed in compliance with the German animal protection laws and protocols of the local committee (Regierungspräsidium Karlsruhe, approval number: 35-9185.81/G-206/15). 20, six week old female immunodeficient Fox Chase SCID (CB17/Icr-Prkdc^scid/IcrIcoCrl) mice with an average weight of 20 g were subcutaneously implanted with 17β-estradiol pellets (0.36 mg/60 days). 4 days later, the tumors were induced by subcutaneous inoculation of 5 × 10^6 T-47D cells into the left flank of the […]. After induction, the tumors were allowed to grow for 8–10 weeks and reached a diameter of about 0.5 cm. For imaging, the animals were anaesthetized with isoflurane and injected with 5.5–8.0 MBq of the respective radioligand ([^68Ga]24, [^68Ga]24a or [^68Ga]24b) into the lateral tail vein. Dynamic PET images were acquired over 90 min and CT images were obtained within further 30 min. After the end of the diagnostic scan, the animals were sacrificed, the organs were collected and measured in a gamma-counter.

[1] = as above; details: female, Fox Chase SCID (CB17/Icr-Prkdc^scid/IcrIcoCrl), mouse, in vivo, iv, total radioactivity
Experimental: as §1

T-47D cells = experiment: In vitro cell uptake (internalization) study in T-47D cells; format: cell-based, human; details: after 4 h, % of total added activity
Experimental: Cell culture. All cell lines were grown in suitable culture medium at 37 °C in a humidified CO2 (5%) atmosphere. The human breast cancer cell lines T-47D, MDA-MB-231 and MCF-7 were grown in Dulbecco’s Modified Eagle Medium (DMEM), supplemented with 10% (v/v) fetal calf serum (FCS) and 1% (v/v) L-Glutamine. For a high expression of the NPY(Y1) receptor on T-47D cells, the medium for this cell line was further supplemented with 0.15% (w/v) β-estradiol. The BT-474 and PC-3 cell lines were grown in RPMI-1640 medium, also supplemented with 10% (v/v) fetal calf serum (FCS) and 1% (v/v) L-Glutamine.
Internalization studies. Cells (T-47D, MDA-MB-231, MCF-7, BT-474 and PC-3, 1.5 × 10^6 cells per well) were seeded into 6-well plates and incubated overnight at 37 °C in a humidified CO2 (5%) atmosphere. The next day, the medium was removed and the cells were washed twice with the respective medium without supplements (ice-cold, 1 mL) and incubated with 3.7–4.0 kBq (0.37–4.0 pmol) of the respective ^68Ga-radiolabeled ligand [^68Ga]22−[^68Ga]26, [^68Ga]27 or [^68Ga]28 (in 1.5 mL medium, containing 0.5% (w/v) BSA) for defined time-points of 1, 2, 3 or 4 h at 37 °C in a humidified CO2 (5%) atmosphere. A 1000-fold excess of the respective peptide (3 or 4) was used for blocking to determine the non-specific cell uptake. At each time point, the medium was removed and the cells were washed twice with the respective medium without supplements (ice-cold, 1 mL). Cells were treated twice with 1 mL glycine buffer (ice-cold, 50 mM glycine, 100 mM NaCl, pH 2.8) for 5 min at room temperature, followed by 2 mL NaOH solution (1 M) for 10 min at 37 °C. The supernatants were collected and the radioactivity measured in a gamma counter. The internalized and surface bound activity was expressed as percentage of measured to total added activity. Each data point was generated thrice in triplicates.

[2] = Determination of radiotracer lipophilicity (logD, phosphate buffer/1-octanol); format: physicochemical; details: phosphate buffer (0.05 M, pH 7.4) / 1-octanol, six independent experiments
Experimental: Determination of radiotracer lipophilicity. The heterobivalent ligands (22–26) as well as the monomeric reference compounds (27 and 28) were radiolabeled with ^68Ga as described before and 2 µL of the product solution (~65 pmol of the respective radioligand) were added to a mixture of phosphate buffer (0.05 M, pH 7.4, 800 µL) and 1-octanol (800 µL) and incubated for 5 min at ambient temperature under vigorous shaking. Both phases were separated by centrifugation and 100 µL of each phase were measured for radioactivity in a gamma-counter. […] (cpm = counts per minute), cpmw = activity in the aqueous phase [cpm]. These experiments were performed six times independently.

CCCC[C@H](NC(=O)[C@H](CCCCNC(=O)CON=Cc1ccc(C(=O)NCCOCCOCCOCCOCCC(=O)NCCCN(CCCNC(=O)CCOCCOCCOCCOCCNC(=O)c2ccc(C=NOCC(=O)NCCOCCOCCOCCOCCC(=O)N[C@@H](CCC(N)=O)C(=O)N[C@@H](Cc3c[nH]c4ccccc34)C(=O)N[C@@H](C)C(=O)N[C@H](C(=O)NCC(=O)N[C@@H](Cc3c[nH]cn3)C(=O)N[C@@H](CC(C)C)C(=O)N[C@@H](CCSC)C(N)=O)C(C)C)cc2)CC(=O)NCCOCCOCCOCCOCCC(=O)N[C@@H](CCCCNC(=O)CCC(C(=O)O)N2CCN(CC(=O)O)CCN(CC(=O)O)CC2)C(N)=O)cc1)NC(=O)[C@H](CC(N)=O)NC(=O)[C@H](Cc1ccc(O)cc1)NC(=O)[C@@H]1CCCN1)C(=O)N[C@@H](CCCNC(=N)N)C(=O)N[C@@H](CCCNC(=N)N)C(=O)N[C@@H](Cc1c[nH]c2ccccc12)C(=O)N[C@H](C(N)=O)[C@@H](C)CC (stereo partly shown) [[^68Ga]24b, metal not drawn]
adrenal glands uptake (T-47D tumor-bearing mice): 2.91 ± 1.13 ID/g in %
blood uptake (T-47D tumor-bearing mice): 2.02 ± 1.34 ID/g in %
bone uptake (T-47D tumor-bearing mice): 0.43 ± 0.23 ID/g in %
brain uptake (T-47D tumor-bearing mice): 0.07 ± 0.04 ID/g in %
heart uptake (T-47D tumor-bearing mice): 0.85 ± 0.52 ID/g in %
kidneys uptake (T-47D tumor-bearing mice): 43.84 ± 25.05 ID/g in %
large intestines uptake (T-47D tumor-bearing mice): 1.71 ± 0.69 ID/g in %
liver uptake (T-47D tumor-bearing mice): 16.75 ± 0.85 ID/g in %
lung uptake (T-47D tumor-bearing mice): 0.88 ± 0.07 ID/g in %
muscle uptake (T-47D tumor-bearing mice): 0.48 ± 0.40 ID/g in %
pancreas uptake (T-47D tumor-bearing mice): 8.30 ± 5.33 ID/g in %
small intestines uptake (T-47D tumor-bearing mice): 1.53 ± 0.51 ID/g in %
spleen uptake (T-47D tumor-bearing mice): 2.12 ± 0.49 ID/g in %
stomach uptake (T-47D tumor-bearing mice): 1.35 ± 0.43 ID/g in %
tail uptake (T-47D tumor-bearing mice): 1.64 ± 0.94 ID/g in %
tumor uptake (T-47D tumor-bearing mice): 1.84 ± 0.32 ID/g in %
tissue to tissue ratio at 130 min ([1]; tumor-to-blood ratio (T / B)): 0.91 ± 0.24
tissue to tissue ratio at 130 min ([1]; tumor-to-muscle ratio (T / M)): 3.83 ± 0.8

CCCC[C@H](NC(=O)[C@H](CCCNC(=N)N)NC(=O)[C@H](Cc1c[nH]c2ccccc12)NC(=O)[C@H](CCCCNC(=O)CON=Cc1ccc(C(=O)NC2CCN(CC(=O)NCCCN(CCCNC(=O)CN3CCC(NC(=O)c4ccc(C=NOCC(=O)NCCOCCOCCOCCOCCC(=O)N[C@@H](CCC(N)=O)C(=O)N[C@@H](Cc5c[nH]c6ccccc56)C(=O)N[C@@H](C)C(=O)N[C@H](C(=O)NCC(=O)N[C@@H](Cc5c[nH]cn5)C(=O)N[C@@H](CC(C)C)C(=O)N[C@@H](CCSC)C(N)=O)C(C)C)cc4)CC3)CC(=O)NCCOCCOCCOCCOCCC(=O)N[C@@H](CCCCNC(=O)CCC(C(=O)O)N3CCN(CC(=O)O)CCN(CC(=O)O)CC3)C(N)=O)CC2)cc1)NC(=O)[C@@H]1CCCN1C(=O)[C@H](CC(N)=O)NC(=O)[C@@H](N)[C@@H](C)CC)C(=O)N[C@@H](CCCNC(=N)N)C(=O)N[C@@H](Cc1ccc(O)cc1)C(N)=O (stereo partly shown) [[^68Ga]25, metal not drawn]
specific cell uptake (T-47D cells): 48.2 ± 2.8%
logD [2]: -1.55 ± 0.114

CSCC[C@H](NC(=O)[C@H](CC(C)C)NC(=O)[C@H](Cc1c[nH]cn1)NC(=O)CNC(=O)[C@@H](NC(=O)[C@H](C)NC(=O)[C@H](Cc1c[nH]c2ccccc12)NC(=O)[C@H](CCC(N)=O)NC(=O)CCOCCOCCOCCOCCNC(=O)CN1CCN(CC(=O)O)CCN(CC(=O)O)CCN(CC(=O)O)CC1)C(C)C)C(N)=O [[^68Ga]27, metal not drawn, reference compound]
logD [2]: -1.86 ± 0.054

CCCC[C@H](NC(=O)[C@H](CCCNC(=N)N)NC(=O)[C@H](Cc1c[nH]c2ccccc12)NC(=O)[C@H](CCCCNC(=O)CN1CCN(CC(=O)O)CCN(CC(=O)O)CCN(CC(=O)O)CC1)NC(=O)[C@@H]1CCCN1C(=O)[C@H](CC(N)=O)NC(=O)[C@@H](N)[C@@H](C)CC)C(=O)N[C@@H](CCCNC(=N)N)C(=O)N[C@@H](Cc1ccc(O)cc1)C(N)=O [[^68Ga]28, metal not drawn, reference compound] (H-INPK(DOTA)WR[Nle]RY-NH2)
logD [2]: -1.98 ± 0.162
